Values belong to the binder of their own block, whether it stands above or below them. Numbered stars: 1 amine (or outer) side, 2 acyl side, 3 side chain; on linkers, the order of the positions; unused ones are H or OH. Square brackets hold non-standard residues; d marks the D form. Ends that are not written are not given here. * marks the point of attachment. O(CA) = ornithine chloroamidine, N=C(CCl)NCCC[C@H](N[*:1])C(=O)[*:2]; Orn(fluoroacetimidoyl) = N=C(CF)NCCC[C@H](N)C(=O)O; 2Naphthylsulfonyl = O=S(=O)(c1ccc2ccccc2c1)*; AEEA = NCCOCCOCC(=O)O
Key:
Test in all cases: cell-based or functional assay
[1] = molecular target: T1, recombinant human PAD2 (human, UniProt Q9Y2J8 1-665)
T1 sequence (Q9Y2J8 whole entry): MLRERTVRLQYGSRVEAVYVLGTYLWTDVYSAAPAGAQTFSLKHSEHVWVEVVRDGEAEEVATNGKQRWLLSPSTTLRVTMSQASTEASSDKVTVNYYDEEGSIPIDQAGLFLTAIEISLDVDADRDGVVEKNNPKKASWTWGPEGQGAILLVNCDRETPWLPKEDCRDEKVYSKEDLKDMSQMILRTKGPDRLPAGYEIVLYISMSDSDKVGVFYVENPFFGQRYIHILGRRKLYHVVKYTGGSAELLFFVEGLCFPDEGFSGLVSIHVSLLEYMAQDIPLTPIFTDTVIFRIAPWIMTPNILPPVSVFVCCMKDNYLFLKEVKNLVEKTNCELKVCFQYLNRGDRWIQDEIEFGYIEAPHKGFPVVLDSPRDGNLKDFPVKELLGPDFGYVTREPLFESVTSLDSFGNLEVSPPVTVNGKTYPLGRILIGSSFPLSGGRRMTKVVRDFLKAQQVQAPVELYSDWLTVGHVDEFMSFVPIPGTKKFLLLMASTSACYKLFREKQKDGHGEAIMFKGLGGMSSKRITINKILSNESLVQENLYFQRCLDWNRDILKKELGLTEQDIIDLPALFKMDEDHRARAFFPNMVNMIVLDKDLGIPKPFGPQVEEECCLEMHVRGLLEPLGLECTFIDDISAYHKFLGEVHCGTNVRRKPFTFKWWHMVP

[2] = molecular target: T2, recombinant human PAD4 (human, UniProt Q9UM07 1-663)
T2 sequence (Q9UM07 whole entry): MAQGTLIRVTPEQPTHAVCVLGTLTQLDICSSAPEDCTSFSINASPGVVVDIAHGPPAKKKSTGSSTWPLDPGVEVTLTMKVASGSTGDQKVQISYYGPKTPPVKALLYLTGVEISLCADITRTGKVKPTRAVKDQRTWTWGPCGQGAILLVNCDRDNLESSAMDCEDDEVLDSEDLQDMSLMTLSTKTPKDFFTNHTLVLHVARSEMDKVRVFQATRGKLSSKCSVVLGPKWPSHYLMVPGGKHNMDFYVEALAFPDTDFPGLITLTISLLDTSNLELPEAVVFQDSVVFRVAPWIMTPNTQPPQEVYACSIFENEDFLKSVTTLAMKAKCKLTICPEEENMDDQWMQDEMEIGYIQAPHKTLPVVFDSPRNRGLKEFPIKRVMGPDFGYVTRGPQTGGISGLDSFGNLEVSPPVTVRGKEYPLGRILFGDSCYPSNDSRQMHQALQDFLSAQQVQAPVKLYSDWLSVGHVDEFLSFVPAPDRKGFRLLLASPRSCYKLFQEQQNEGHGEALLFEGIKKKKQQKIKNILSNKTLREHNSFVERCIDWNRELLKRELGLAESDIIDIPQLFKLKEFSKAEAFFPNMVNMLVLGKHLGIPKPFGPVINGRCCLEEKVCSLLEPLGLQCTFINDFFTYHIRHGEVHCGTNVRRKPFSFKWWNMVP

[3] = molecular target: T1, recombinant human PAD2; remark: listed apart in the source
[4] = molecular target: T2, recombinant human PAD4; remark: listed apart in the source
[5] = molecular target: T1, recombinant human PAD2; remark: listed apart in the source
[6] = molecular target: T2, recombinant human PAD4; remark: listed apart in the source
[7] = molecular target: T1, recombinant human PAD2; remark: listed apart in the source
[8] = molecular target: T2, recombinant human PAD4; remark: listed apart in the source

IC50 values (µM), ABAP PAD activity assay [1]: 55 µM | IC50 values (µM), ABAP PAD activity assay [2]: 203 µM
Binder: SS[O(CA)]DG [S-S-O(CA)-D-G]

IC50 values (µM), ABAP PAD activity assay, second round [3]: 58 µM | IC50 values (µM), ABAP PAD activity assay, second round [4]: 44 µM
Binder: YD[O(CA)]GS [Y-D-O(CA)-G-S]

Inhibition of PAD2: value at 10 µM inhibitor (0 µM: 76) [5]: 17% | Inhibition of PAD2: value at 20 µM inhibitor (0 µM: 76) [5]: 8% | Inhibition of PAD2: value at 40 µM inhibitor (0 µM: 76) [5]: 4% | Inhibition of PAD2: value at 80 µM inhibitor (0 µM: 76) [5]: 2% | Inhibition of PAD4: value at 10 µM inhibitor (0 µM: 67) [6]: 37% | Inhibition of PAD4: value at 20 µM inhibitor (0 µM: 67) [6]: 23% | Inhibition of PAD4: value at 40 µM inhibitor (0 µM: 67) [6]: 17% | Inhibition of PAD4: value at 80 µM inhibitor (0 µM: 67) [6]: 9%
B1: 0837-28FA (peptide)
peptide: 2Naphthylsulfonyl-KWH[Orn(fluoroacetimidoyl)]DFF[AEEA]-NH2
SMILES: N=C(CF)NCCC[C@H](NC(=O)[C@H](Cc1c[nH]cn1)NC(=O)[C@H](Cc1c[nH]c2ccccc12)NC(=O)[C@H](CCCCN)NS(=O)(=O)c1ccc2ccccc2c1)C(=O)N[C@@H](CC(=O)O)C(=O)N[C@@H](Cc1ccccc1)C(=O)N[C@@H](Cc1ccccc1)C(=O)NCCOCCOCC(N)=O

conversion of 0708-30 by PAD2, 10 µM inhibitor (0 µM: 68) [7]: 47% | conversion of 0708-30 by PAD2, 50 µM inhibitor (0 µM: 68) [7]: 20% | conversion of 0708-30 by PAD2, 100 µM inhibitor (0 µM: 68) [7]: 11% | conversion of 0708-30 by PAD4, 10 µM inhibitor (0 µM: 81) [8]: 45% | conversion of 0708-30 by PAD4, 50 µM inhibitor (0 µM: 81) [8]: 18% | conversion of 0708-30 by PAD4, 100 µM inhibitor (0 µM: 81) [8]: 12%
B2: 0748-25FA (peptide)
peptide: Ac-KHD[Orn(fluoroacetimidoyl)]DFL-NH2
SMILES: CC(=O)N[C@@H](CCCCN)C(=O)N[C@@H](Cc1c[nH]cn1)C(=O)N[C@@H](CC(=O)O)C(=O)N[C@@H](CCCNC(=N)CF)C(=O)N[C@@H](CC(=O)O)C(=O)N[C@@H](Cc1ccccc1)C(=O)N[C@@H](CC(C)C)C(N)=O

Inhibition of PAD2: value at 10 µM inhibitor (0 µM: 74) [5]: 16% | Inhibition of PAD2: value at 20 µM inhibitor (0 µM: 74) [5]: 9% | Inhibition of PAD2: value at 40 µM inhibitor (0 µM: 74) [5]: 5% | Inhibition of PAD2: value at 80 µM inhibitor (0 µM: 74) [5]: 2% | Inhibition of PAD4: value at 10 µM inhibitor (0 µM: 71) [6]: 33% | Inhibition of PAD4: value at 20 µM inhibitor (0 µM: 71) [6]: 16% | Inhibition of PAD4: value at 40 µM inhibitor (0 µM: 71) [6]: 10% | Inhibition of PAD4: value at 80 µM inhibitor (0 µM: 71) [6]: 5%
Binder: 2Naphthylsulfonyl-KFD[Orn(fluoroacetimidoyl)]DFI-NH2 [0837-29FA]

Inhibition of PAD2: value at 10 µM inhibitor (0 µM: 74) [5]: 24% | Inhibition of PAD2: value at 20 µM inhibitor (0 µM: 74) [5]: 14% | Inhibition of PAD2: value at 40 µM inhibitor (0 µM: 74) [5]: 7% | Inhibition of PAD2: value at 80 µM inhibitor (0 µM: 74) [5]: 4% | Inhibition of PAD4: value at 10 µM inhibitor (0 µM: 71) [6]: 35% | Inhibition of PAD4: value at 20 µM inhibitor (0 µM: 71) [6]: 20% | Inhibition of PAD4: value at 40 µM inhibitor (0 µM: 71) [6]: 12% | Inhibition of PAD4: value at 80 µM inhibitor (0 µM: 71) [6]: 7%
B3: 0837-27FA (peptide)
peptide: 2Naphthylsulfonyl-KFD[Orn(fluoroacetimidoyl)]DFI[AEEA]-NH2
SMILES: CC[C@H](C)[C@H](NC(=O)[C@H](Cc1ccccc1)NC(=O)[C@H](CC(=O)O)NC(=O)[C@H](CCCNC(=N)CF)NC(=O)[C@H](CC(=O)O)NC(=O)[C@H](Cc1ccccc1)NC(=O)[C@H](CCCCN)NS(=O)(=O)c1ccc2ccccc2c1)C(=O)NCCOCCOCC(N)=O

IC50 values (µM), ABAP PAD activity assay [1]: 14 µM | IC50 values (µM), ABAP PAD activity assay [2]: 177 µM
Binder: SS[Orn(fluoroacetimidoyl)]DG [S-S-O(FA)-D-G]

IC50 values (µM), ABAP PAD activity assay [1]: 34 µM | IC50 values (µM), ABAP PAD activity assay [2]: 153 µM
Binder: TD[O(CA)]GS [T-D-O(CA)-G-S]

conversion of 0708-30 by PAD2, 10 µM inhibitor (0 µM: 68) [7]: 58% | conversion of 0708-30 by PAD2, 50 µM inhibitor (0 µM: 68) [7]: 35% | conversion of 0708-30 by PAD2, 100 µM inhibitor (0 µM: 68) [7]: 24% | conversion of 0708-30 by PAD4, 10 µM inhibitor (0 µM: 81) [8]: 64% | conversion of 0708-30 by PAD4, 50 µM inhibitor (0 µM: 81) [8]: 32% | conversion of 0708-30 by PAD4, 100 µM inhibitor (0 µM: 81) [8]: 18%
B4: 0748-17FA (peptide)
peptide: Ac-KLH[Orn(fluoroacetimidoyl)]EWM-NH2
SMILES: CSCC[C@H](NC(=O)[C@H](Cc1c[nH]c2ccccc12)NC(=O)[C@H](CCC(=O)O)NC(=O)[C@H](CCCNC(=N)CF)NC(=O)[C@H](Cc1c[nH]cn1)NC(=O)[C@H](CC(C)C)NC(=O)[C@H](CCCCN)NC(C)=O)C(N)=O

IC50 values (µM), ABAP PAD activity assay [1]: 17 µM | IC50 values (µM), ABAP PAD activity assay [2]: 178 µM
Binder: GD[Orn(fluoroacetimidoyl)]SG [G-D-O(FA)-S-G]

— patent publication US20110142868A1 (CHIRALIX B V, published 2011)
